Biological target: Bovine thrombin (bovine) (UniProt P00735)
Experiment: cell-based or functional assay

- Coagulation time, substance 17 nM, bovine fibrinogen 1 mg/ml, bovine thrombin 18 nM; control 28.1 sec: 29.6 s
- IC50 of inhibition of coagulation of bovine fibrinogen (1 mg/ml) by bovine thrombin (18 nM): 80 nM
- clotting time, human fibrinogen 2.5 mg/ml, bovine thrombin 0.5 U/ml, ATIII (+) (human antithrombin III 250 ug/ml); control 49.5 sec: 80.8 s
- clotting time, human fibrinogen 2.5 mg/ml, bovine thrombin 0.5 U/ml, ATIII (-); control 43.3 sec: 61.8 s
Substance: r-UTM (from UniProt P07204 19-486)
